In the supplement of paper PMC7125110:
± gives the standard error. Fewer inactive variants are shown than the library holds.

B1: glmS ribozyme (parent)
chain: AUAAAAGCGCCAGAACUACAGAAAUGUAGUUGACGAGGAGGAGGUUUAUCGAAUUUUCGGCGGAUGCCUCCAAA

Key:
Conditions in all cases: with glucosamine-6-phosphate
glucosamine-6-phosphate [1] = variants of: B1; test: self-cleavage kobs at 40 uM GlcN6P; higher = faster cleavage; RNA array
Outline: (§1)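 Tiles of sequenced MiSeq chips were imaged over ~14 h at 37 °C. On them, barcoded ribozyme variants had been transcribed in situ by E. coli RNA polymerase and were tracked via a hybridised Cy3 probe while glucosamine-6-phosphate (40 μM to 10 mM) in HEPES/KCl/Mg(OAc)2 buffer flowed in. Per-tile medians, normalised to baseline and to non-cleaving reference variants, were fit to one- or two-exponential decays for kobs, and weighted Michaelis–Menten fits gave kcat and KM.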

glucosamine-6-phosphate [2] = variants of: B1; test: self-cleavage kobs at 160 uM GlcN6P; higher = faster cleavage; RNA array
Outline: as §1

glucosamine-6-phosphate [3] = variants of: B1; test: self-cleavage kobs at 10000 uM GlcN6P; higher = faster cleavage; RNA array
Outline: as §1

glucosamine-6-phosphate [4] = variants of: B1; test: self-cleavage kobs at 640 uM GlcN6P; higher = faster cleavage; RNA array
Outline: as §1

glucosamine-6-phosphate [5] = variants of: B1; test: self-cleavage kobs at 2500 uM GlcN6P; higher = faster cleavage; RNA array
Outline: as §1

Row | Variant | self-cleavage kobs at 40 uM GlcN6P (glucosamine-6-phosphate [1]) [s⁻¹] | self-cleavage kobs at 160 uM GlcN6P (glucosamine-6-phosphate [2]) [s⁻¹] | self-cleavage kobs at 10000 uM GlcN6P (glucosamine-6-phosphate [3]) [s⁻¹] | self-cleavage kobs at 640 uM GlcN6P (glucosamine-6-phosphate [4]) [s⁻¹] | self-cleavage kobs at 2500 uM GlcN6P (glucosamine-6-phosphate [5]) [s⁻¹]
1 | C11A A36U G62C C71G | < 1e-05 | < 1e-05 | < 1e-05 |  | 
2 | G9U A15G | < 1e-05 |  |  | < 1e-05 | < 1e-05
3 | C10U A36U U65G | < 1e-05 |  |  |  | 
4 | C10U C34A | < 1e-05 | < 1e-05 | < 1e-05 | < 1e-05 | 
5 | C10G A15U A36U G38A A53G C68G C70U | 0.000148 ± 4.5e-05 |  |  |  | 
6 | G9C G13U G44C U45G | < 1e-05 |  |  | < 1e-05 | < 1e-05
7 | C10U A39U G43C | < 1e-05 |  | < 1e-05 |  | 
8 | C10A C11G G60U C61G | < 1e-05 |  | < 1e-05 |  | 
9 | G9U C16A | < 1e-05 | < 1e-05 | < 1e-05 | < 1e-05 | < 1e-05
10 | C11G A33G G40C | < 1e-05 |  | < 1e-05 |  | 
11 | G9U G35C G43A | < 1e-05 | < 1e-05 |  | < 1e-05 | 
12 | C10A C16U | < 1e-05 | < 1e-05 |  | < 1e-05 | 
13 | C10G C50A | < 1e-05 |  |  | < 1e-05 | 
14 | G9U G43U C70G | < 1e-05 |  | < 1e-05 |  | 
15 | C10U A52U U65A | < 1e-05 |  | < 1e-05 | < 1e-05 | < 1e-05
16 | C10A U31G A48G C67G | < 1e-05 |  | < 1e-05 |  | 
17 | C11A G37C G60A | < 1e-05 |  |  |  | 
18 | C11G A42G | < 1e-05 | < 1e-05 |  | < 1e-05 | 
19 | C11G A42U | < 1e-05 | < 1e-05 | < 1e-05 | < 1e-05 | < 1e-05
20 | C11A G44C | < 1e-05 | < 1e-05 |  | < 1e-05 | < 1e-05
21 | C11A G44U | < 1e-05 | < 1e-05 |  | < 1e-05 | < 1e-05
22 | C11A G44A | < 1e-05 |  | < 1e-05 | < 1e-05 | < 1e-05
23 | C10G A33U G35U G60U | < 1e-05 |  | < 1e-05 |  | 
24 | C10U A12C A53C | < 1e-05 |  |  |  | 
25 | G9U G60U | < 1e-05 |  |  | < 1e-05 | < 1e-05

Row | Variant | self-cleavage kobs at 40 uM GlcN6P (glucosamine-6-phosphate [1]) [s⁻¹] | self-cleavage kobs at 160 uM GlcN6P (glucosamine-6-phosphate [2]) [s⁻¹] | self-cleavage kobs at 10000 uM GlcN6P (glucosamine-6-phosphate [3]) [s⁻¹] | self-cleavage kobs at 640 uM GlcN6P (glucosamine-6-phosphate [4]) [s⁻¹] | self-cleavage kobs at 2500 uM GlcN6P (glucosamine-6-phosphate [5]) [s⁻¹]
26 | G9C G62A | < 1e-05 |  | < 1e-05 | < 1e-05 | 
27 | C10U A39G C71A | < 1e-05 |  |  |  | 
28 | C10G G32C A48U | < 1e-05 |  | < 1e-05 |  | 
29 | C10G G29U U31C A36U C68A C71U | < 1e-05 |  |  |  | 
30 | G9U G32A A53C U55G G63U | < 1e-05 |  |  |  | 
31 | G9C G38U G63A | < 1e-05 |  |  |  | 
32 | C10A U31G A42U C50G U56A G60U C68G C71A | 4.77e-05 ± 2e-05 |  |  | 0.00298 ± 0.00084 | 
33 | C10U A15U G44U U46G G63U A64G | < 1e-05 |  | < 1e-05 |  | 
34 | G9C U30A U46C U56A | < 1e-05 |  | < 1e-05 |  | 
35 | C10G C11A A42U | < 1e-05 |  | < 1e-05 |  | < 1e-05
36 | G9U G35C G66U | < 1e-05 |  | < 1e-05 |  | 
37 | C10G U31C G35U | < 1e-05 |  | < 1e-05 |  | 
38 | C10U G44U | < 1e-05 |  | < 1e-05 | < 1e-05 | < 1e-05
39 | C11G A39G U45C G60A G66U | < 1e-05 |  |  |  | 
40 | G9U A64G | < 1e-05 | < 1e-05 | < 1e-05 |  | 
41 | C10G A15G A64G | < 1e-05 |  |  |  | 
42 | G9C G44A | < 1e-05 | < 1e-05 | < 1e-05 | < 1e-05 | < 1e-05
43 | G9C G32C C68A | < 1e-05 |  | < 1e-05 | < 1e-05 | < 1e-05
44 | C11A G29U G32U G44A | < 1e-05 |  |  |  | 
45 | C11A U57A G60U | < 1e-05 |  |  |  | 
46 | G9U A36C G38C | < 1e-05 |  | < 1e-05 |  | 
47 | C10U U46G | < 1e-05 | < 1e-05 |  |  | 
48 | C11G G13A G41U U45G G66A | < 1e-05 |  |  |  | 
49 | G9C G66U | < 1e-05 | < 1e-05 | < 1e-05 | < 1e-05 | < 1e-05
50 | C10U G29U C34A | < 1e-05 |  | < 1e-05 |  | < 1e-05

Row | Variant | self-cleavage kobs at 40 uM GlcN6P (glucosamine-6-phosphate [1]) [s⁻¹] | self-cleavage kobs at 160 uM GlcN6P (glucosamine-6-phosphate [2]) [s⁻¹] | self-cleavage kobs at 10000 uM GlcN6P (glucosamine-6-phosphate [3]) [s⁻¹] | self-cleavage kobs at 640 uM GlcN6P (glucosamine-6-phosphate [4]) [s⁻¹] | self-cleavage kobs at 2500 uM GlcN6P (glucosamine-6-phosphate [5]) [s⁻¹]
51 | C11A A15C G43A | < 1e-05 |  | < 1e-05 |  | 
52 | C10G A14U C34A U49G | < 1e-05 |  |  |  | 
53 | C10A U45G | < 1e-05 |  | < 1e-05 | < 1e-05 | < 1e-05
54 | C10A A14U | < 1e-05 |  |  | < 1e-05 | 
55 | C10A A14C | < 1e-05 |  |  | < 1e-05 | < 1e-05
56 | C10U A52C | < 1e-05 |  | < 1e-05 |  | 
57 | C11A C50G | 5.74e-05 ± 1.4e-05 | 0.000276 ± 7.2e-05 | 8.61e-05 ± 1.6e-05 | 0.000195 ± 4e-05 | 9.24e-05 ± 1.4e-05
58 | C10A U49A C61U G62U | < 1e-05 |  |  |  | 
59 | C11A C61U C70U | < 1e-05 |  | < 1e-05 |  | 
60 | C11A C70U C71G | 4.85e-05 ± 1.9e-05 |  | 3.22e-05 ± 1.6e-05 |  | 
61 | C10U G29C C61A | < 1e-05 |  |  |  | 
62 | G9C G63A A64C C70G | < 1e-05 |  | < 1e-05 |  | 
63 | G9C G44A A52U | < 1e-05 |  |  |  | 
64 | C11G A36G U49A U65C C70U | < 1e-05 |  | < 1e-05 |  | 
65 | C11G G37C | < 1e-05 |  | < 1e-05 |  | 
66 | G9U U45G | < 1e-05 | < 1e-05 | < 1e-05 | < 1e-05 | < 1e-05
67 | C10G G63A | < 1e-05 |  | < 1e-05 |  | 
68 | C11A A15G C58G C68A | 8.59e-05 ± 2.2e-05 |  | 0.000145 ± 2.6e-05 |  | 
69 | G9C G41U C50A | < 1e-05 |  |  |  | 
70 | C11A A12C A64C | < 1e-05 |  | < 1e-05 |  | < 1e-05
71 | C10A G41U G44U | < 1e-05 | < 1e-05 |  | < 1e-05 | < 1e-05
72 | G9U U30C G43A | < 1e-05 |  |  | < 1e-05 | 
73 | C11A U30C | < 1e-05 | < 1e-05 |  |  | 4.93e-05 ± 1.8e-05
74 | C11G C58G | < 1e-05 | < 1e-05 | < 1e-05 | < 1e-05 | 
75 | C10G U30A C71G | < 1e-05 |  |  |  | 

Row | Variant | self-cleavage kobs at 40 uM GlcN6P (glucosamine-6-phosphate [1]) [s⁻¹] | self-cleavage kobs at 160 uM GlcN6P (glucosamine-6-phosphate [2]) [s⁻¹] | self-cleavage kobs at 10000 uM GlcN6P (glucosamine-6-phosphate [3]) [s⁻¹] | self-cleavage kobs at 640 uM GlcN6P (glucosamine-6-phosphate [4]) [s⁻¹] | self-cleavage kobs at 2500 uM GlcN6P (glucosamine-6-phosphate [5]) [s⁻¹]
76 | C10U G43A C70G | < 1e-05 |  |  |  | 
77 | C10A G37U A42U C67G C68G | 7.19e-05 ± 2e-05 |  |  |  | 
78 | C10A G13A U30C G40A | < 1e-05 |  |  |  | 
79 | C10U C67U C70U | < 1e-05 |  | < 1e-05 |  | 
80 | C11G G41A | < 1e-05 |  | < 1e-05 | < 1e-05 | < 1e-05
81 | C11G A15C G29U A64U C70U | < 1e-05 |  | < 1e-05 |  | 
82 | C10G U47C U54C | < 1e-05 |  |  |  | < 1e-05
83 | C11G C16A A48C | < 1e-05 |  | < 1e-05 |  | 
84 | C10A U30C C61A | < 1e-05 |  |  |  | 
85 | C11A U31A A39G U55C G66U | < 1e-05 | < 1e-05 | < 1e-05 |  | 
86 | C10G U45G | < 1e-05 | < 1e-05 | < 1e-05 | < 1e-05 | < 1e-05
87 | C11A G37U A42U C68U | < 1e-05 |  |  | < 1e-05 | 
88 | G9C C34G | < 1e-05 | < 1e-05 | < 1e-05 | < 1e-05 | < 1e-05
89 | G9U U30G | < 1e-05 |  | < 1e-05 | < 1e-05 | 
90 | C11G G32A | < 1e-05 | < 1e-05 | < 1e-05 | < 1e-05 | 
91 | C10G G44A | < 1e-05 | < 1e-05 | < 1e-05 | < 1e-05 | 
92 | C10A C50G | 7.92e-05 ± 1.7e-05 | 0.000235 ± 5.6e-05 | 6.81e-05 ± 1.2e-05 | 0.000189 ± 4.1e-05 | 0.000174 ± 3.5e-05
93 | C11G A53C | < 1e-05 | < 1e-05 | < 1e-05 | < 1e-05 | < 1e-05
94 | C10U G37U | < 1e-05 |  | < 1e-05 | < 1e-05 | 
95 | C10A G13C | < 1e-05 | < 1e-05 | < 1e-05 |  | < 1e-05
96 | C10U C11G | < 1e-05 |  | < 1e-05 | < 1e-05 | < 1e-05
97 | G9C G63A | < 1e-05 |  |  | < 1e-05 | 
98 | C10A U30G C71U | < 1e-05 |  | < 1e-05 |  | 
